Reference: publication PMC7905068, “Bornyl Diphosphate Synthase From Cinnamomum burmanni and Its Application for (+)-Borneol Biosynthesis in Yeast” (Frontiers in Bioengineering and Biotechnology, 2021)

Substrate: CC(C)=CCC/C(C)=C/COP(=O)(O)OP(=O)(O)O
Assay: GC-MS of products after CIAP dephosphorylation, Michaelis-Menten fit
Assay type: biochemical, Cinnamomum burmanni
Settings: 50 mM HEPES pH 7.2, 10 mM MgCl2, 5 mM DTT, 30 °C, 3 min, 0.125-150 μM GPP

B1: CbTPS1 (Cinnamomum burmanni) (protein)
chain: MALQMTVPFLSSFLPNPRHRPTAHGFIPQERVSKHISCSTTTPTYSTTVPRRSGNYKPSIWDYDFVQSLVSDYKVEAHGTRVEKLKEVVKNLLKETDSSLAQMELIDSLHRLGVRWLFENEIKQVLYTVSSDNTSIEMKKDLHAVSTRFRLLRQHGFKVSTDVFNDFEDEKGCFKPSLSMDIKGMLSLYEASHLAFQGETILDEARAFTHAHLMGIKENIDPIIHKKVEHALDMPLHWRLEKLEARWYMDMYMREEGMNSSLLELAMLHFNIVQATFQTNLKSLSRWWKDLGLGEQLSFSRDRLVECFFWAAAMTSEPQFGRCQEAVAKVVQLTTTIDDIYDVYGTVDELELFTNAVDRWDLEAMEQLPEYMKTCFLALYNSINEIGYGILKEQGRNVIPYLRNAWTELCKAYLVEAKWYSSGYTPMLEEFLQTSWISVGSLPMQTYAFALLGQNLAPESCDFAEQISDILPLAGMLIRFPDDLGTSLDELKRGDVPKSIQCYMHEAGVTEDVARDHIMGLFRETWKKLNEYLVESSIPHAFIDQAMNLGRVSYCTYKHGDGFSDGFGDPGSQEKKMYMSLFVEPIQVDEAKGISFCVDGGYA
Km: 5.11 ± 1.70 µM | kcat: 0.01 s^–1
